Results on 1 molecule are retold here after US11813311B2, “Treatment and prevention of metabolic diseases” (Singapore Health Services PTE LTD., priority 2019, dated 2023).

For one experiment, the target named is T1, mouse Il11ra1 (Mus musculus, UniProt Q64385).
T1 sequence (Q64385 24-432): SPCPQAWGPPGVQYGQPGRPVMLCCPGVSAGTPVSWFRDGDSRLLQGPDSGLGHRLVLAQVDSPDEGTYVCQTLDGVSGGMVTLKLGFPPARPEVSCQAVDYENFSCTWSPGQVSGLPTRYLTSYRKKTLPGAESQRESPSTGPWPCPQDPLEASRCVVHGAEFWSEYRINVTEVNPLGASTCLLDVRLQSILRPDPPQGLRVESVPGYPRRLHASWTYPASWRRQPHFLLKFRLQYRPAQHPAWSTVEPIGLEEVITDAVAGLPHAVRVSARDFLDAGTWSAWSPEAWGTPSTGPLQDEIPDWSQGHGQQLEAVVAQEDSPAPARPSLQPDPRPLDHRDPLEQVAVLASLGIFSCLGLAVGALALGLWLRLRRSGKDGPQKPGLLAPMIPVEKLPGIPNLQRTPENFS
As to the kind of experiment: Binding of X209 to mouse Il11ra1 (Octet). As to conditions: Octet system. How it is done:
Binding of X209 to human IL11RA was measured on Biacore T200 (GE Healthcare). X209 was immobilized onto an anti-mouse capture chip. Interaction assays were performed with HEPES-buffered saline pH 7.4 containing 0.005% P20 and 0.5% BSA. A concentration range (1.56 nM to 100 nM) of the analyte (human IL11 RA) was injected over X209 and reference surfaces at a flow rate of 40 μl min^−1. Binding to mouse Il11ra1 was confirmed on Octet system (ForteBio) using a similar strategy. All sensograms were aligned and double-referenced^4. Affinity and kinetic constants were determined by fitting the corrected sensorgrams with 1:1 Langmuir model. The equilibrium binding constant KD was determined by the ratio of kd/ka.
Background: In BLI a coated tip is dipped into the sample, and binding shifts an interference pattern.

In another experiment the test system is HSCs. As to the kind of experiment: HSC-to-myofibroblast transformation (ACTA2/Collagen I, Operetta). As to conditions: antibody 2 μg/ml, 24 h. Type of experiment: cell-based, human. How it is done: Cells (atrial fibroblasts, HSCs and hepatocytes) were grown and maintained at 37° C. and 5% CO2. The growth medium was renewed every 2-3 days and cells were passaged at 80-90% confluence using standard trypsinization techniques. All the experiments were carried out at low cell passage (P1-P2). Cells were serum-starved for 16 h prior to stimulations. Stimulated cells were compared to unstimulated cells that have been grown for the same duration under the same conditions (serum-free media), but without the stimuli.
HSCs (5300, ScienCell) were cultured in stellate cells complete media (5301, ScienCell) on poly-L-lysine-coated plates (2 μg/cm2, 0403, ScienCell).
The Operetta assay was performed mostly as described previously 11 with minor modifications described here: HSCs or hepatocytes were seeded in 96-well black CellCarrier plates (PerkinElmer) at a density of 5×10^3 cells per well. Following experimental conditions, cells were fixed in 4% paraformaldehyde (PFA, 28908, Thermo Fisher), permeabilized with 0.1% Triton X-100 (Sigma) and non-specific sites were blocked with 0.5% BSA and 0.1% Tween-20 in PBS. Cells were incubated overnight (4° C.) with primary antibodies (1:500), followed by incubation with the appropriate AlexaFluor 488 secondary antibodies (1:1000). Rhodamine Phalloidin staining (1:1000, R415, Thermo Fisher) was performed by overnight incubation (4° C.). […]

The next experiment has as its system WDF-fed mice. The experiment can be described thus: WDF NASH reversal model (Example 4). Particulars: WDF 16 weeks, then 10 mg/kg for 8 weeks on continued WDF. Type of experiment: in vivo, mouse. How it is done: FIGS. 21A to 21L. Inhibition of Il-11 signalling reverses NASH pathologies in preclinical models and HSC-to-myofibroblast transformation. (A) Schematic showing therapeutic dosing regime in NASH reversal experiment for data shown in (B-G). Mice were fed with WDF for 16 weeks to induce NASH and then treated with (10 mg/kg) X209 or IgG for 8 weeks while they were on continuous WDF feeding. (B) Total liver hydroxyproline content, the levels of (C) liver triglycerides, (D) serum ALT, (E), fasting blood glucose, (F) serum triglycerides, and (G) serum cholesterol in mice on NC and IgG- and X209-treated WDF (n≥5/group). (H) Schematic showing reversal experiment in which fibrosis was established by feeding mice HFMCD for 10 weeks and then replacing this with NC and initiating antibody (X203 and X209) therapy. Mice were euthanized at the indicated time points. (I) Total liver hydroxyproline content (dotted line represents the mean value of NC=0.93) and (J) relative mRNA expression of Mmp2/Timp1 at 1-, 3-, 6-weeks after concurrent metabolic intervention (diet switch) and X203, X209, or IgG treatment (n≥3/group). Quantification of ACTA2^+ve immunostaining (scale bars, 200 μm) following incubation (K) with TGFβ1 or (L) with PDGF, either prior to or after the addition of X203, X209, or IgG (n=5/group). (K-L) TGFβ1 (5 ng/ml), PDGF (20 ng/ml), IgG, X203 and, X209 (2 μg/ml). (B-G, K-L) Data are shown as box-and-whisker with median (middle line), 25th-75th percentiles (box) and min-max percentiles (whiskers); (I) data are shown as mean±s.d; (J) data are represented as line chart (mean) and transparencies indicate s.d. (B) Two-tailed Student's t-test (C-G,K-L) two-tailed, Tukey-corrected Student's t-test; (I-J) two-way ANOVA. FC: fold change; NC: normal chow; WDF: Western diet+15% (w/v) fructose; HFMCD: high fat methionine- and choline-deficient.
Ten week old male C57Bl/6J mice were fed Western diet (D12079B, Research Diets), supplemented with 15% weight/volume fructose in drinking water to mimic NAFLD/NASH like humans 17,18, whereas control mice received normal chow and tap water. Durations of diet and antibody therapies are described.
Mice were injected intraperitoneally with either antagonist anti-IL-11 antibody, antagonist anti-IL11RA antibody or an identical amount of IgG isotype control for the treatment durations outlined in the figures.
Mice were fasted for 6 h prior to blood collection (via tail snip) and Accu-Chek blood glucose meter was used to take fasting glucose measurements.

B1: X209: mouse anti-mouse IL-11Rα IgG (IgG1κ), neutralising; VH SEQ ID NO:24, VL SEQ ID NO:25 (antibody, V domains shown)
VH: QVQLQQPGAELVRPGSSVKLSCKASGYTFTNYWMHWLKQRPVQGLEWIGNIGPSDSKTHYNQKFKDKATLTVDKSSSTAYMQLNSLTSEDSAVYYCARGDYVLFTYWGQGTLVTVSA
VL: DIVLTQSPATLSLSPGERATLSCRASQSISNNLHWYQQKSHEAPRLLIKYASQSISGIPARFSGSGSGTDFTLSFSSLETEDFAVYFCQQSYSWPLTFGQGTKLEIK
modifications: Enx209 VH; Enx209 VL
As to B1, the “Binding to mouse Il11ra1” value with mouse Il11ra1 is recorded as “confirmed”. Also, the “HSC transformation downstream of all factors, including IL-11” value in the experiment with HSCs is recorded as “abolished”. In the experiment on WDF-fed mice, the “hepatic Erk activation” value is given as “inhibited”, the liver fibrosis result is reported as “reversal”, the liver inflammation entry is recorded as “reversal” and the liver steatosis entry was “reversal”. Further, in the experiment on WDF-fed mice, the “serum ALT levels” value was “reduction”, the serum cholesterol levels entry is on record as “reduction”, the serum glucose entry is listed as “reduction” and the serum triglycerides entry is “reduction”.
